What was measured:
[1] = biological target: T1, extracellular domain (ECD) of human αKlotho, amino acids E34-S981 with C-terminal 6-His tag (R&D Systems … (human, UniProt Q9UEF7 34-981)); assay: SPR, Fab captured by anti-H+L antibody, αKlotho injected
T1 construct: range 34-981; also called αKlotho (aa34-981); target antigen
T1 sequence: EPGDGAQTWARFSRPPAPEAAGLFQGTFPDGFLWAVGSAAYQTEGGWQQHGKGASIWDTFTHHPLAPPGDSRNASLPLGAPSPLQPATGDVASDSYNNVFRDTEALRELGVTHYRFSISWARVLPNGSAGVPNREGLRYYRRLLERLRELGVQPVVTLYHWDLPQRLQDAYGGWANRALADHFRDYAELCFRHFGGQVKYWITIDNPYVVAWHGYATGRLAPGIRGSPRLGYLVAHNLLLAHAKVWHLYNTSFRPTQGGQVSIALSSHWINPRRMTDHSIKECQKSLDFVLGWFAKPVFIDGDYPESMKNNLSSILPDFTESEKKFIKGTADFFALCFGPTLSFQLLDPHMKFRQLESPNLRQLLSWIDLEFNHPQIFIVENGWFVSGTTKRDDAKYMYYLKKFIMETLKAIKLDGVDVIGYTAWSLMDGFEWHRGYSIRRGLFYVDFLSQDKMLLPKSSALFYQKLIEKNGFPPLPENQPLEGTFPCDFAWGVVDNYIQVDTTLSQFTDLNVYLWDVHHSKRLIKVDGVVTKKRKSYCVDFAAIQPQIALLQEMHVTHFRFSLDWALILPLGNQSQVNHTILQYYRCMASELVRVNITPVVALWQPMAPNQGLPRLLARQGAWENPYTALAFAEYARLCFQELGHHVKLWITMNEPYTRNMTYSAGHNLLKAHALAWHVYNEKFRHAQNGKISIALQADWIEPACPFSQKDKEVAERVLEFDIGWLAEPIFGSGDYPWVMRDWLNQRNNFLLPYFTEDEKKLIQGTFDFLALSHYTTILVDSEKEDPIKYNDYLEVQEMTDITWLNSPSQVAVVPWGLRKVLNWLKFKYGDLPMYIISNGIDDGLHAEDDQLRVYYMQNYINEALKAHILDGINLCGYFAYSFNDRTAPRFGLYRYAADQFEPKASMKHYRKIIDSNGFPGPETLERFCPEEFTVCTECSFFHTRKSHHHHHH
Method: (§1) Affinity estimates for each of the antibodies were determined by surface plasmon resonance (SPR). Fabs were immobilized using an anti-H+L antibody and serial dilutions of αKlotho were injected.

[2] = biological target: T1, extracellular domain (ECD) of human …; assay: SPR, Fab captured by anti-H+L IgG, αKlotho injected at 50 to 6.25 ug/ml, Langmuir fit [continued]
Method: as §1

bovine serum albumin = biological target: T2, bovine serum albumin (bovine, UniProt P02769 25-607); assay: Fab ELISA, purified Fab 5 ug/ml on immobilised BSA, anti-Flag-HRP, A450
T2 construct: also called BSA
T2 sequence (P02769 25-607 limits assumed): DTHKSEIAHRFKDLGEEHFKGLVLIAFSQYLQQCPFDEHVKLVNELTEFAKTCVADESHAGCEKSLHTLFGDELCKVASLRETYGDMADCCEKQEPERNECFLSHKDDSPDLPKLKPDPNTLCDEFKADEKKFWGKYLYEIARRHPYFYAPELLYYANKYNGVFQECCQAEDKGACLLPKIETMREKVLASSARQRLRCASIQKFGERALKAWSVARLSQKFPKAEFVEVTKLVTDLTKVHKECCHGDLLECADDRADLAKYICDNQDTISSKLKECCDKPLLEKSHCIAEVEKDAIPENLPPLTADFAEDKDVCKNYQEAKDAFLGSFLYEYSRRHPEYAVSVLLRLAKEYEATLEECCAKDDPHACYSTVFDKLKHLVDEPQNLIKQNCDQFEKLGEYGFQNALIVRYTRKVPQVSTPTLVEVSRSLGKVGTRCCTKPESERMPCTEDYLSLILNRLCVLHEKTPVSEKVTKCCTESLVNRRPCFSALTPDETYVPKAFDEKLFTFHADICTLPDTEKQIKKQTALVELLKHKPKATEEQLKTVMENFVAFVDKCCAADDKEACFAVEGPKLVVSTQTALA
Method: FIG. 10 is a graph showing absorbance values of Fab ELISAs with additional αKlotho antibodies. Purified Fabs [5 ug/ml] were incubated with immobilized αKlotho (1 ug/ml) or bovine serum albumin (BSA), as a negative control. After washing off unbound Fab, bound Fab were detected using an HRP-conjugated anti-Flag anti-body (Fabs have Flag-tag on the light chain). Colorimetric HRP reagents allow for absorbance readings at 450 nm.

[3] = biological target: T1, extracellular domain (ECD) of human …; assay: SPR, Fab captured by anti-H+L IgG, αKlotho injected at 50 to 6.25 ug/ml, Langmuir fit
Method: as §1

B1: anti-αKlotho Fab clone 4833 (Fab, V domains shown)
VH: EVQLVESGGGLVQPGGSLRLSCAASGFNLSSYYMHWVRQAPGKGLEWVASIYPSYSSTYYADSVKGRFTISADTSKNTAYLQMNSLRAEDTAVYYCARSSYSVYFWWYVSAMDYWGQGTLVTVSS
VL: DIQMTQSPSSLSASVGDRVTITCRASQSVSSAVAWYQQKPGKAPKLLIYSASSLYSGVPSRFSGSRSGTDFTLTISSLQPEDFATYYCQQSSHGHYPITFGQGTKVEIKR
notes: Fab (also as Fab-phage); FLAG tag on light chain; also called sb202
[1]
  Kd: 1.4 nM
[2]
  Kd: 0.703 nM
  koff: 0.000519 s⁻¹
  kon: 739000 M⁻¹ s⁻¹
Bovine serum albumin
  binding result: no binding (tested: 5 ug/ml)

B2: anti-αKlotho Fab clone 4805 (Fab, V domains shown)
VH: EVQLVESGGGLVQPGGSLRLSCAASGFNLSYYSMHWVRQAPGKGLEWVASISSYYGSTYYADSVKGRFTISADTSKNTAYLQMNSLRAEDTAVYYCARGGGYYSGPYAGFDYWGQGTLVTVSS
VL: DIQMTQSPSSLSASVGDRVTITCRASQSVSSAVAWYQQKPGKAPKLLIYSASSLYSGVPSRFSGSRSGTDFTLTISSLQPEDFATYYCQQSSGWYHFLFTFGQGTKVEIKR
notes: Fab (also as Fab-phage); FLAG tag on light chain; also called sb174
[1]
  Kd: 0.24 nM
[3]
  Kd: 0.117 nM
  koff: 0.000183 s⁻¹
  kon: 1.57e+06 M⁻¹ s⁻¹

B3: anti-αKlotho Fab clone 4830 (Fab, V domains shown)
VH: EVQLVESGGGLVQPGGSLRLSCAASGFNIYYSSIHWVRQAPGKGLEWVASIYPYYSYTYYADSVKGRFTISADTSKNTAYLQMNSLRAEDTAVYYCARSVASALDYWGQGTLVTVSS
VL: DIQMTQSPSSLSASVGDRVTITCRASQSVSSAVAWYQQKPGKAPKLLIYSASSLYSGVPSRFSGSRSGTDFTLTISSLQPEDFATYYCQQYSWYWYSPITFGQGTKVEIKR
notes: Fab (also as Fab-phage); FLAG tag on light chain; also called sb199
[1]
  Kd: 2.9 nM
[2]
  Kd: 1.53 nM
  koff: 0.00113 s⁻¹
  kon: 741000 M⁻¹ s⁻¹
Bovine serum albumin
  binding result: no binding (tested: 5 ug/ml)

B4: anti-αKlotho Fab clone 4829 (Fab, V domains shown)
VH: EVQLVESGGGLVQPGGSLRLSCAASGFNISSYYIHWVRQAPGKGLEWVASIYSSYGYTSYADSVKGRFTISADTSKNTAYLQMNSLRAEDTAVYYCARYSWSPYWWWAYSGLDYWGQGTLVTVSS
VL: DIQMTQSPSSLSASVGDRVTITCRASQSVSSAVAWYQQKPGKAPKLLIYSASSLYSGVPSRFSGSRSGTDFTLTISSLQPEDFATYYCQQGGGLITFGQGTKVEIKR
notes: Fab (also as Fab-phage); FLAG tag on light chain; also called sb198
[1]
  Kd: 1.8 nM
[2]
  Kd: 0.907 nM
  koff: 0.000614 s⁻¹
  kon: 678000 M⁻¹ s⁻¹
Bovine serum albumin
  binding result: no binding (tested: 5 ug/ml)

B5: anti-αKlotho Fab clone 4804 (Fab, V domains shown)
VH: EVQLVESGGGLVQPGGSLRLSCAASGFNLYSYSIHWVRQAPGKGLEWVAYISSSSGSTYYADSVKGRFTISADTSKNTAYLQMNSLRAEDTAVYYCARGWGGGYWFYPVYGIDYWGQGTLVTVSS
VL: DIQMTQSPSSLSASVGDRVTITCRASQSVSSAVAWYQQKPGKAPKLLIYSASSLYSGVPSRFSGSRSGTDFTLTISSLQPEDFATYYCQQSSYSLITFGQGTKVEIKR
notes: Fab (also as Fab-phage); FLAG tag on light chain C-terminus; also called sb173
[1]
  Kd: 0.77 nM
[3]
  Kd: 0.516 nM
  koff: 0.000738 s⁻¹
  kon: 1.43e+06 M⁻¹ s⁻¹

B6: anti-αKlotho Fab clone 4807 (Fab, V domains shown)
VH: EVQLVESGGGLVQPGGSLRLSCAASGFNLSSSYMHWVRQAPGKGLEWVASIYPSYGSTSYADSVKGRFTISADTSKNTAYLQMNSLRAEDTAVYYCARGVVPSYYYWFWPYGAIDYWGQGTLVTVSS
VL: DIQMTQSPSSLSASVGDRVTITCRASQSVSSAVAWYQQKPGKAPKLLIYSASSLYSGVPSRFSGSRSGTDFTLTISSLQPEDFATYYCQQSSYSLITFGQGTKVEIKR
notes: Fab (also as Fab-phage); FLAG tag on light chain; also called sb176
[1]
  Kd: 6.1 nM
[3]
  Kd: 3.5 nM
  koff: 0.00244 s⁻¹
  kon: 698000 M⁻¹ s⁻¹

B7: anti-αKlotho Fab clone 4832 (Fab, V domains shown)
VH: EVQLVESGGGLVQPGGSLRLSCAASGFNFSSSSIHWVRQAPGKGLEWVAYISSSYGYTSYADSVKGRFTISADTSKNTAYLQMNSLRAEDTAVYYCARASGWFSHFYPAAVSGMDYWGQGTLVTVSS
VL: DIQMTQSPSSLSASVGDRVTITCRASQSVSSAVAWYQQKPGKAPKLLIYSASSLYSGVPSRFSGSRSGTDFTLTISSLQPEDFATYYCQQSSYSLITFGQGTKVEIKR
notes: Fab (also as Fab-phage); FLAG tag on light chain; also called sb201
[1]
  Kd: 0.515 nM
[2]
  Kd: 0.123 nM
  koff: 4.61e-05 s⁻¹
  kon: 374000 M⁻¹ s⁻¹
Bovine serum albumin
  binding result: no binding (tested: 5 ug/ml)

Source: patent US20190041402A1 (GOVERNING COUNCIL OF THE UNIVERSITY OF TORONTO, published 2019)
